Source: patent US20210309710A1 (DAEWOONG PHARMACEUTICAL, published 2021)

Target: Recombinant human serum albumin (human, UniProt P02768 25-609)
Test: SPR (BIACORE 3000), recombinant HSA immobilized on CM5 chip
Protocol: To measure the binding affinities of the ABD-fused insulin analogue proteins for albumin, a surface plasmon resonance (SPR, BIACORE 3000, GE healthcare) analysis method was used. Recombinant human serum albumin was immobilized on a CM5 chip by an amine coupling method, and the ABD or ABD-fused insulin analogues diluted to five or more concentrations were bound thereto, and the affinities thereof for the human serum albumin were measured.

Sequence of Recombinant human serum albumin (P02768 25-609 limits assumed): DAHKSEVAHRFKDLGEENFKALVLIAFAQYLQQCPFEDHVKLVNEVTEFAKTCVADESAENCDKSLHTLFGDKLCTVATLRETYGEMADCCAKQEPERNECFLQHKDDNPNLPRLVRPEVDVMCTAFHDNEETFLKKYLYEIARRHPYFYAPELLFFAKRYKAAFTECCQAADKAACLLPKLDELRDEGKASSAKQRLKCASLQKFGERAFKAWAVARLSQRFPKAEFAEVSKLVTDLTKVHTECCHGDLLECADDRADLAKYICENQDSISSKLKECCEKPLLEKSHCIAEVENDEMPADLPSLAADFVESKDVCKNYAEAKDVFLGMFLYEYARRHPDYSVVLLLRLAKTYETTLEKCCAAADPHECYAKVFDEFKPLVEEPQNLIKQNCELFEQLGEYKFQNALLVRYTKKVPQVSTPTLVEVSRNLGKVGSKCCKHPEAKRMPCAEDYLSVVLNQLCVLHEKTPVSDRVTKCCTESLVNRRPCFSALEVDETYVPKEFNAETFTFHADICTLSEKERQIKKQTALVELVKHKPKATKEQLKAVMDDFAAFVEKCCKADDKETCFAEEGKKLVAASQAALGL

Binder: LAEAKEAANAELDSYGVSDFYKKLIDKAKTVEGVEALKDAILAALP (designed binder) [albumin-binding domain (ABD)]
- Kd: 7.29 pM
- koff: 2.41e-05 s⁻¹
- kon: 5.93e+06 M⁻¹ s⁻¹
